Source: patent publication US20110059093A1 (Hoffmann-La Roche, published 2011)
Square brackets hold non-standard residues; d marks the D form. Ends that are not written are not given here. pS = N[C@@H](COP(=O)(O)O)C(=O)O

B1: anti-Tau pS422 antibody Mab 005 (antibody, V domains shown)
VH: QSVEESGGRLVTPGTPLTLTCTVSGLSLSSNAINWVRQAPGKGLEWIGYISTSGNTYYASWAKGRFTISKTSTTVDLKITSPTTEDTATYFCGRGDLWGPGTLVTVSS
VL: QVLTQTASPVSAAVGSTVTINCQASQSVYKNNYLAWFQQKPGQPPKRLIYSASTLASGVSSRFKGSGSGTQFTLTISDVQCDDAATYYCLGSCDSSSNNCVAFGGGTEVVVK
notes: Rabbit monoclonal antibody, recombinantly expressed in HEK293 with rabbit kappa and gamma constant regions
B2: anti-Tau pS422 antibody Mab 020 (antibody, V domains shown)
VH: QSVEESGGRLVTPGTPLTLTCKVSGFSLSSYDMNWVRQAPGKGLEWVGAISTGGNTYYASWAKGRFTISKTSTTVTLTITSPTTADTATYFCARGSSIWGPGTLVTVSL
VL: QVLTQTASPVSAAVGSTVTINCQASQSVYKNNYLRWYQQKPGQPPKRLIYTASTLASGVSSRFKGSGSGTQFTLTISDVQCDDAATYYCLGGYDCNSADCWAFGGGTEVVVK
notes: as for B1
B3: anti-Tau pS422 antibody Mab 019 (antibody, V domains shown)
VH: QSVEESGGRLVTPGTPLTLTCTVSGIDLSSYTMNWVRQAPGKGLDWIGFINSGGYTSYASWTRGRFTISKTSTTVDLRITSPTTEDTATYFCARYGGGSGFDLWGPGTLVTVSS
VL: QVLTQTASSVSAAVGGTVTINCQSSQSVYNNRLAWYQQKPGQPPKLLIYKASTLASGVPSRFKGSGSGTQFTLTISDLECDDAATYYCAGGYINIFAFGGGTEVVVK
notes: as for B1
B4: Mab2.10.3 (anti-Tau pS422 antibody) (antibody, IgG1, V domains shown)
VH: EVQLVESGGDLVRPGGSLKLSCAASGFTFRTYGMSWVRQTADKRLEWVATISSGGTYTYYADNVRERFTISRDNARDTLYLQMSRLESDDTAMYYCTRRYGYDGGGSFDVWGAGTRVTVSS
VL: EIVMTQAAPSVPVTPGESASISCRSNKSLLHSNGNTYLCWFLQRPGQSPQLLIYRMSTLAPGVPDRFSGSGSGTAFTLRISRLEAEDVGVYYCMQHIEYPLTFGAGTKLELK
notes: Mouse monoclonal antibody purified from hybridoma supernatant; also called clone 2.10.3; Tau_2.10.3
B5: anti-Tau pS422 antibody Mab 097 (antibody, V domains shown)
VH: QSVEESGGRLVTPGTPLTLTCTVSGIDLSSYSITWVRQAPGKGLEYIGFIGTGGSTYYASWAKGRFTISRTSTTVDLKITSPTTEDTATYFCARGGDLWGPGTLVTVSS
VL: QVLTQTASSVSAAVGGTVTINCQSSQNVYNNNKLAWFQQKPGQPPKRLIYGASTLASGVSSRFKGSGSGTQFTLTISDLECDDAATYYCLGGYSGNIYTFGGGTEVVVK
notes: as for B1
B6: anti-Tau pS422 antibody Mab 085 (antibody, V domains shown)
VH: QSVEESGGRLVTPGTPLTLTCTVSGLSLSSNAINWVRQAPGKGLEWIGYIAVSGNTYYASWAKGRFTISKASTTVDLKMTSPTAEDTGTYFCGKSNIWGPGTLVTVSL
VL: QVLTQTASPVSAAVGITVTISCQSSQSVRTNKLAWFQQKPGQPPKRLIYSASTLDSGVPSRFSASGSGTQFTLTISDVQCDDAATYYCLGYYDCSIADCVAFGGGTEVVVK
notes: as for B1
B7: anti-Tau pS422 antibody Mab 086 (antibody, V domains shown)
VH: QSVEESGGRLVTPGTPLTLTCTVSGFSLSSNAINWVRQAPGKGLEWIGYIAVSGNTYYASWAKGRFTISKASTTVDLKMTSPTAEDTGTYFCGKSNIWGPGTLVTVSL
VL: QVLTQTTSPVSAAVGSTVTISCQSSQSVRTNKLAWFQQKPGQPPKRLIYSASTLDFGVPSRFSASGSGTQFTLTISDVQCDDAATYYCLGYFDCSIADCVAFGGGTEVVVK
notes: as for B1

How the values were obtained:
[1] = biological target: T1, Tau fragment Ser-Ile-Asp-Met-Val-Asp-Ser-Pro-Gln-Leu-Ala-Thr-Leu-Ala-Asp (SEQ ID NO:10) (human, also: biotinylated, site not given here); assay: ELISA, biotinylated peptide on streptavidin plate, anti-rabbit IgG detection
T1 construct: Biotinylated control peptide on streptavidin plates; also called nonphosphorylated Tau fragment; non-phosphorylated Tau (416-430)
T1 peptide: SIDMVDSPQLATLAD
Experimental: (§1) Rabbit monoclonal antibodies were recombinantly expressed in HEK 293 cells. Cell culture supernatants or purified rabbit antibodies were tested for binding to biotinylated Tau (416-430)[pS422], non-phosphorylated Tau (416-430), KLH (key hole limpet hemocyanine) and the unrelated phospho-peptide MCAK_Human (88-102)[95-pSer] by ELISA. For the preparation of ELISA plates, streptavidine pre-coated microtiter plates were incubated with biotinylated Tau ([…])[pS422] at 50 ng/ml for 1 hour at room temperature. Coating with KLH or control peptides was performed at 1 μg/ml. Rabbit Anti Tau pS422 antibody (Abcam AB51071) or rabbit antibody containing supernatants were incubated in the antigen labeled microtiter plates for 60 min at various concentrations. After intensive washing, the binding of the rabbit antibodies was detected using a sheep anti-rabbit IgG digoxigenin conjugated detection antibody (Chemicon AQ301D). After incubation with TMB at room temperature absorbance at 370 nm-492 nm was measured. The antibody binding was characterized by its EC50 values. The antibody binding to biotinylated Tau (416-430)[pS422] and non-phosphorylated Tau (416-430) peptides was characterized by its EC50 values. Cross-reactivity with KLH or MCAK phosphopeptide was estimated by single-point measurement at high concentrations, i.e. at 1:5 dilution of the cell culture supernatants. […] Binding to KLH and MCAK control phosphopeptide was at background level with all antibodies, which is about […] of the maximal value measures with Tau phosphopeptide.

[2] = biological target: T2, phosphorylated Tau fragment Ser-Ile-Asp-Met-Val-Asp-Ser(PO3H2)-Pro-Gln-Leu-Ala-Thr-Leu-Ala-Asp (SEQ ID NO:9) (human, also: biotin attached through 1x epsilon-lysine and 4x beta-alanine, site not given here); assay: as above
T2 construct: also called Tau (416-430)[pS422]; Tau phosphopeptide
T2 peptide: SIDMVD[pS]PQLATLAD
Experimental: as §1

[3] = biological target: T3, phosphorylated MCAK fragment Ile-Gln-Lys-Gln-Lys-Arg-Arg-Ser(PO3H2)-Val-Asn-Ser-Lys-Ile-Pro-Ala (SEQ ID NO:17) (human, also: Glu(biotinyl-PEG) coupled to the peptide, site not given here); assay: ELISA, single point, MCAK phosphopeptide coated
T3 construct: Fragment of human mitotic centromere-associated kinesin (KIF2C, UniProt Q99661 printed); biotinylated control peptide; also called MCAK phosphopeptide
T3 peptide: IQKQKRR[pS]VNSKIPA
Experimental: as §1

[4] = biological target: T2, phosphorylated Tau fragment …; assay: ELISA, ratio of EC50 values on the two peptides
[5] = biological target: T4, KLH (key hole limpet hemocyanine); assay: ELISA, single point, KLH coated
T4 construct: Control antigen coated at 1 µg/ml
Experimental: as §1

[6] = biological target: T3, phosphorylated MCAK fragment …; assay: ELISA, biotinylated peptide on streptavidin plate
Experimental: Peptides representing the Tau pS422 sequence 416-430 (phosphorylated and non phosphorylated) and MCAK_Human (88-102)[95-pSer] were synthesized and biotinylated to allow the coating to a streptavidin labeled microtiter plate. To test for maximal binding of Tau phosphopeptide to the assay plates, different concentrations of Tau phosphopeptide ranging from 1 ng/ml to 2000 ng/ml were used for coating. Finally 50 ng/ml Tau phosphopeptide was used for coating for 60 min at room temperature. Anti Tau pS422 antibodies 2.10.3., 2.20.4. and 5.6.11 were incubated in the peptide labeled microtiter plates for 60 min in concentrations up to 1000 ng/ml. After washing, the binding of the antibodies was detected using an anti-mouse—IgG Fc antibody which was POD-labeled. After incubation with ABTS® for 20 min at room temperature absorbance (O.D.) at 405 nm-492 nm was measured. The antibody binding was determined by EC₅₀. Typical EC₅₀ value could be determined in the range of 100 ng/ml for 2.10.3., 8 ng/ml for 2.20.4. and 1 ng/ml for 5.6.11. The nonphosphorylated Tau fragment and (MCAK_Human (88-102)[95-pSer]) were used as controls. No binding of the control peptides could be observed. Typical back-ground values were around 30 mE (Table 1), which is about 1% of the maximal value measured with phosphorylated Tau fragment. […]

Binder	EC50 [1] [µg/mL]	EC50 [2] [µg/mL]	OD 1:5 dilution of supernatant [3] [mE]	selectivity compared to non-phosphorylated Tau peptide [4] [fold]	OD 1:5 dilution of supernatant [5] [mE]	binding result [6]
B1	3.73	< 0.003	0.067	≥ 100	0.026	
B2			0.01		0.016	
B3	1.08	< 0.003	0.023	≥ 100	0.026	
B4						no binding (tested: up to 1000 ng/ml)
B5	1.28	0.0013	0.029	≥ 100	0.042	
B6	0.146	0.0009	0.062	≥ 100	0.029	
B7	0.266	0.0011	0.104	≥ 100	0.046	
